Experimental data: paper PMC9320966 (Arthritis & Rheumatology (Hoboken, N.j.), 2022)

Molecular target: COMP in mouse joint cartilage (Mus musculus, UniProt Q9R0G6)
Test: immunostaining of cells or tissue

COMP in mouse joint cartilage, sequence (Q9R0G6 20-755): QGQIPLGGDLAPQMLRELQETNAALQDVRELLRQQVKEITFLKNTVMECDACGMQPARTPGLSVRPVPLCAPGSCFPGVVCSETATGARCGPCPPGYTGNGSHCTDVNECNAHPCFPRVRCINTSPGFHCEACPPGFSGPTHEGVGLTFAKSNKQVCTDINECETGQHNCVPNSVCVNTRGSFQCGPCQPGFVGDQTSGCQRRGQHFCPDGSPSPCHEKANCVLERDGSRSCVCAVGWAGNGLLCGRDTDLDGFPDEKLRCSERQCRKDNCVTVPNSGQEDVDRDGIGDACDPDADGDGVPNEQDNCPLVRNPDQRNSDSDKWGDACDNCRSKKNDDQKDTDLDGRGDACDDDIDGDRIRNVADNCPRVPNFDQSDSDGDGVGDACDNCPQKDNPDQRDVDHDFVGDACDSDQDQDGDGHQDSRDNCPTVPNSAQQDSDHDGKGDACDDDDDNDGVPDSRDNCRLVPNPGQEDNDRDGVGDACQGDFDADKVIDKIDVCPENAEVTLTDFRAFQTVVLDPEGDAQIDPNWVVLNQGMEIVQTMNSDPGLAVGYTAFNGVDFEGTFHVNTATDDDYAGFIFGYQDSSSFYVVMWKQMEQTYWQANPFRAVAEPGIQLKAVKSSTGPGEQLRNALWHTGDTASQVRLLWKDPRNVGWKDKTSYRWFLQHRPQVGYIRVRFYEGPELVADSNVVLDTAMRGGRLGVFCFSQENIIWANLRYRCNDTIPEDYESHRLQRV

B1: murine monoclonal anti-COMP antibody 15A11 (antibody, V domains shown)
VH: QVQLQQSGAELAKPGASVNLSCKASGYTFTNYWVHWVKQRPGQGLEWIGYINPSNTYISYNQQFKDKATLTADKSSSTAYMQLSRLTYEDSSVYYCARGGFFYDYDVWYFDVWGTGTTVTVSS
VL: DVLMTQIPLSLPVSLGDQASISCRSSQNIVHSNGNTYLEWYLQKPGQSPKLLIYKVSNRFSGVPDRFSGSGSGTDFTLKISRVEAEDLGVYYCFQGSHVPFTFGSGTKLEIK
binding result: binds
